Laboratory results as given in patent US7507790 (UNIVERSITY OF SUSSEX, dated 2009).

Biological target: T1, SAF-p2a
T1 construct: also called self-assembling peptide; straight
T1 peptide: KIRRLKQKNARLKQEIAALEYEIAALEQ
Test: co-assembly into fibres, seen by TEM (each peptide at 100 µM, 22° C. overnight)
Description: All samples of fibres were prepared with SAF-p1 and SAF-p2a (each at 100 μM concentration) with the designated amounts of FiSh peptides, and incubated at 22° C. overnight following the techniques described in Pandya et al., 2000 (supra).

- binding result: binds
B1: SAF-p1 (peptide)
peptide: KIAALKQKIASLKQEIDALEYENDALEQ
notes: Synthetic de novo leucine-zipper peptide made by Fmoc solid-phase synthesis; also called self-assembling peptide; straight
